{"source": "patent US20220306765A1", "about": "(SUZHOU TRANSCENTA THERAPEUTICS, published 2022)", "binders": {"B1": {"name": "59A9-C (antibody, human IgG1, V domains shown)", "VH": "QITQKESGPGILQPSQTLSLTCSLSGFSLSTYFIGVGWIRQPSGKGLEWLAHIWWNDNKYYNTALKSRLTISKDTSNNQVFLKIASVDTADTATYYCARMGSGAWFTYWGQGTLVTVSA", "VL": "DIVMTQSPSSLTVTAGEKVTMSCKSSQSLLNSGNQKNYLTWYQQKPGQPPKLLIYWASTRESGVPDRFTGSGSGTDFTLTISSVQAEDLAVYYCQNDYYYPLTFGSGTKLEIK", "notes": "also called chimeric 59A9"}}, "test_in_all_cases": "FACS, transfected HEK293, 10 µg/ml antibody", "key": {"human CLDN18.2-mRFP R80A": {"biological_target": "human CLDN18.2-mRFP R80A (human)", "sequence (chain, as listed by the source R80A R80A limits assumed)": "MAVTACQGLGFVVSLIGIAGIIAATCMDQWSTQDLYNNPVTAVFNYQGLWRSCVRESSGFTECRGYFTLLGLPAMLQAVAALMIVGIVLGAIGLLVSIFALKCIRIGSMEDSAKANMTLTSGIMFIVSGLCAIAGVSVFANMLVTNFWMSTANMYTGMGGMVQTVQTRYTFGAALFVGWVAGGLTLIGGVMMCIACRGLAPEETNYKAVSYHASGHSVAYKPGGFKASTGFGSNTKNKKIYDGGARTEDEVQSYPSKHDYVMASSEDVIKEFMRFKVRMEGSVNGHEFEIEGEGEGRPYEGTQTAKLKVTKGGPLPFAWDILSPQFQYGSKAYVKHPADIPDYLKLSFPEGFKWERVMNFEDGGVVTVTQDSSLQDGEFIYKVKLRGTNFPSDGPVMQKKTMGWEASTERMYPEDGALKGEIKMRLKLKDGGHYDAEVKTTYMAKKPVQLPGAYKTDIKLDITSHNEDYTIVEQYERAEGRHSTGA", "method": "(§1) The transfected HEK293-CLDN18.2 or HEK293-CLDN18.1 cell were resuspended in PBS with 2% BSA at density of 10\\hat{ }5/well, 100 μl/well. […] Next, cells were washed 3 times by FACS washing buffer and incubated with 100 μl/well goat anti-hIgG (H+L)-FITC (1:200 dilution) at 4° C. for another 30 min. Finally, cells were washed 3 times by FACS washing buffer and analyzed by Flow Cytometry. To analyze binding to CLDN18.2 transfected cells, the RFP positive cells were used for control gating.\n(§2) Subsequently, these plasmids of mutants and wild-type CLDN18.2-mRFP were transfected into HEK293 cell."}, "human CLDN18.2-mRFP L76A": {"biological_target": "human CLDN18.2-mRFP L76A (human)", "sequence (chain, as listed by the source L76A L76A limits assumed)": "as the sequence (chain, as listed by the source R80A R80A limits assumed) above, with L76A, A80R counted along it", "method": "as §1, §2"}, "[1]": {"biological_target": "T1, human CLDN18.2-mRFP1, wild-type (human)", "T1 construct": "human CLDN18.2 (amino acid 1-261) fused to mRFP1 (amino acid 1-225), transiently expressed in HEK293 cells; also called wild-type human CLDN18.2-mRFP", "method": "as §1, §2"}, "human CLDN18.2-mRFP V54A": {"biological_target": "human CLDN18.2-mRFP V54A (human)", "sequence (chain, as listed by the source V54A V54A limits assumed)": "as the sequence (chain, as listed by the source R80A R80A limits assumed) above, with V54A, A80R counted along it", "method": "as §1, §2"}, "human CLDN18.2-mRFP S52A": {"biological_target": "human CLDN18.2-mRFP S52A (human)", "sequence (chain, as listed by the source S52A S52A limits assumed)": "as the sequence (chain, as listed by the source R80A R80A limits assumed) above, with S52A, A80R counted along it", "method": "as §1, §2"}, "human CLDN18.2-mRFP Y46A": {"biological_target": "human CLDN18.2-mRFP Y46A (human)", "sequence (chain, as listed by the source Y46A Y46A limits assumed)": "as the sequence (chain, as listed by the source R80A R80A limits assumed) above, with Y46A, A80R counted along it", "method": "as §1, §2"}, "human CLDN18.2-mRFP Q47A": {"biological_target": "human CLDN18.2-mRFP Q47A (human)", "sequence (chain, as listed by the source Q47A Q47A limits assumed)": "as the sequence (chain, as listed by the source R80A R80A limits assumed) above, with Q47A, A80R counted along it", "method": "as §1, §2"}, "human CLDN18.2-mRFP Y66A": {"biological_target": "human CLDN18.2-mRFP Y66A (human)", "sequence (chain, as listed by the source Y66A Y66A limits assumed)": "as the sequence (chain, as listed by the source R80A R80A limits assumed) above, with Y66A, A80R counted along it", "method": "as §1, §2"}, "human CLDN18.2-mRFP T41A": {"biological_target": "human CLDN18.2-mRFP T41A (human)", "sequence (chain, as listed by the source T41A T41A limits assumed)": "as the sequence (chain, as listed by the source R80A R80A limits assumed) above, with T41A, A80R counted along it", "method": "as §1, §2"}, "human CLDN18.2-mRFP Q29M": {"biological_target": "human CLDN18.2-mRFP Q29M (human)", "sequence (chain, as listed by the source Q29M Q29M limits assumed)": "as the sequence (chain, as listed by the source R80A R80A limits assumed) above, with Q29M, A80R counted along it", "method": "as §1"}, "human CLDN18.2-mRFP E56Q": {"biological_target": "human CLDN18.2-mRFP E56Q (human)", "sequence (chain, as listed by the source E56Q E56Q limits assumed)": "as the sequence (chain, as listed by the source R80A R80A limits assumed) above, with E56Q, A80R counted along it", "method": "as §1"}, "[2]": {"biological_target": "T1, human CLDN18.2-mRFP1, wild-type", "remark": "listed apart in the source", "method": "as §1"}, "human CLDN18.2-mRFP L69I": {"biological_target": "human CLDN18.2-mRFP L69I (human)", "sequence (chain, as listed by the source L69I L69I limits assumed)": "as the sequence (chain, as listed by the source R80A R80A limits assumed) above, with L69I, A80R counted along it", "method": "as §1"}, "human CLDN18.2-mRFP N45Q": {"biological_target": "human CLDN18.2-mRFP N45Q (human)", "sequence (chain, as listed by the source N45Q N45Q limits assumed)": "as the sequence (chain, as listed by the source R80A R80A limits assumed) above, with N45Q, A80R counted along it", "method": "as §1"}, "human CLDN18.2-mRFP Q47E": {"biological_target": "human CLDN18.2-mRFP Q47E (human)", "sequence (chain, as listed by the source Q47E Q47E limits assumed)": "as the sequence (chain, as listed by the source R80A R80A limits assumed) above, with Q47E, A80R counted along it", "method": "as §1"}, "human CLDN18.2-mRFP N37D": {"biological_target": "human CLDN18.2-mRFP N37D (human)", "sequence (chain, as listed by the source N37D N37D limits assumed)": "as the sequence (chain, as listed by the source R80A R80A limits assumed) above, with N37D, A80R counted along it", "method": "as §1"}, "human CLDN18.2-mRFP A42S": {"biological_target": "human CLDN18.2-mRFP A42S (human)", "sequence (chain, as listed by the source A42S A42S limits assumed)": "as the sequence (chain, as listed by the source R80A R80A limits assumed) above, with A42S, A80R counted along it", "method": "as §1"}, "human CLDN18.2-mRFP G65P": {"biological_target": "human CLDN18.2-mRFP G65P (human)", "sequence (chain, as listed by the source G65P G65P limits assumed)": "as the sequence (chain, as listed by the source R80A R80A limits assumed) above, with G65P, A80R counted along it", "method": "as §1"}}, "note": "Where two headings read alike, the source gives them in different places."}
{"binder": "B1", "values": [{"measurement": "binding percentage vs wild-type CLDN18.2", "setting": "human CLDN18.2-mRFP R80A", "value": 13.6, "unit": "%"}, {"measurement": "binding percentage vs wild-type CLDN18.2", "setting": "human CLDN18.2-mRFP L76A", "value": 52.1, "unit": "%"}, {"measurement": "binding percentage vs wild-type CLDN18.2", "setting": "[1]", "value": 100, "unit": "%"}, {"measurement": "binding percentage vs wild-type CLDN18.2", "setting": "human CLDN18.2-mRFP V54A", "value": 87.2, "unit": "%"}, {"measurement": "binding percentage vs wild-type CLDN18.2", "setting": "human CLDN18.2-mRFP S52A", "value": 99, "unit": "%"}, {"measurement": "binding percentage vs wild-type CLDN18.2", "setting": "human CLDN18.2-mRFP Y46A", "value": 15, "unit": "%"}, {"measurement": "binding percentage vs wild-type CLDN18.2", "setting": "human CLDN18.2-mRFP Q47A", "value": 57.5, "unit": "%"}, {"measurement": "binding percentage vs wild-type CLDN18.2", "setting": "human CLDN18.2-mRFP Y66A", "value": 52.5, "unit": "%"}, {"measurement": "binding percentage vs wild-type CLDN18.2", "setting": "human CLDN18.2-mRFP T41A", "value": 41.6, "unit": "%"}, {"measurement": "binding percentage vs wild-type CLDN18.2", "setting": "human CLDN18.2-mRFP Q29M", "value": 90.4, "unit": "%"}, {"measurement": "binding percentage vs wild-type CLDN18.2", "setting": "human CLDN18.2-mRFP E56Q", "value": 52.7, "unit": "%"}, {"measurement": "binding percentage vs wild-type CLDN18.2", "setting": "[2]", "value": 100, "unit": "%"}, {"measurement": "binding percentage vs wild-type CLDN18.2", "setting": "human CLDN18.2-mRFP L69I", "value": 106, "unit": "%"}, {"measurement": "binding percentage vs wild-type CLDN18.2", "setting": "human CLDN18.2-mRFP N45Q", "value": 65, "unit": "%"}, {"measurement": "binding percentage vs wild-type CLDN18.2", "setting": "human CLDN18.2-mRFP Q47E", "value": 87.5, "unit": "%"}, {"measurement": "binding percentage vs wild-type CLDN18.2", "setting": "human CLDN18.2-mRFP N37D", "value": 92.7, "unit": "%"}, {"measurement": "binding percentage vs wild-type CLDN18.2", "setting": "human CLDN18.2-mRFP A42S", "value": 90, "unit": "%"}, {"measurement": "binding percentage vs wild-type CLDN18.2", "setting": "human CLDN18.2-mRFP G65P", "value": 85.5, "unit": "%"}]}
